Data reported in article PMC8101287.

Target: human LAG‐3 on JRT LAG‐3^+ C8 cells (human) (UniProt P18627)
Assay: flow cytometry on cells

Sequence of human LAG‐3 on JRT LAG‐3^+ C8 cells (human) (P18627 23-525): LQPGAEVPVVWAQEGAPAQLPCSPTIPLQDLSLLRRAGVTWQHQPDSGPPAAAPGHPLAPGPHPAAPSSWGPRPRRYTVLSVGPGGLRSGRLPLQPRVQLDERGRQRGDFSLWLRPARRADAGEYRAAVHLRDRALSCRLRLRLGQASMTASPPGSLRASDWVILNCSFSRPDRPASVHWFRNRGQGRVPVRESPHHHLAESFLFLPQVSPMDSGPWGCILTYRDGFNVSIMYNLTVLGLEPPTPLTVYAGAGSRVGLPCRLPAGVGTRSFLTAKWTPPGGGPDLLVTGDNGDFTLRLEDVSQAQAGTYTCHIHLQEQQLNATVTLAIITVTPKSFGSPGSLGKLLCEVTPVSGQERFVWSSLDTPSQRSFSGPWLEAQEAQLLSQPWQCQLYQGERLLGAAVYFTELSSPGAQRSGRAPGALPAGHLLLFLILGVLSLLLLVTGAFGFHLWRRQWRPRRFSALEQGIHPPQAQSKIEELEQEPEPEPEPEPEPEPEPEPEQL

“PE labeled pHLA‐DR1 dextramers loaded with HA_(306‐318) peptide (peptide-MHC)” showed a percent of cells with detectable multimer staining of 19%.
